Measurements as given in patent publication US6110457.

Biological target: T1, bovine fetuin (type IV; Sigma Chemical Company) (bovine) (UniProt P12763)
T1 sequence: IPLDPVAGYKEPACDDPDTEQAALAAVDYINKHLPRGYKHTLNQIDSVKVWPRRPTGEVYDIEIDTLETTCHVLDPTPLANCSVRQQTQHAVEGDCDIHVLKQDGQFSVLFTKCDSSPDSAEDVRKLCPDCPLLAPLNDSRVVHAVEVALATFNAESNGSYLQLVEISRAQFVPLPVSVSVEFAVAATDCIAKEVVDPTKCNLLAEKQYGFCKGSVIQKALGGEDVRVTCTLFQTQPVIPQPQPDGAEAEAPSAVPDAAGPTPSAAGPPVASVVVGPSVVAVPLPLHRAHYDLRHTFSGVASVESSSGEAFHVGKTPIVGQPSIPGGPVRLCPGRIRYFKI

B1: hemagglutinin-neuraminidase protein, HN, of wild-type HPIV-3 (JS) (enzyme)
chain: MEYWKHTNHGKDAGNELETSMATHGNKLTNKIIYILWTIILVLLSIVFIIVLINSIKSEKAHESLLQDINNEFMEITEKIQMASDNTNDLIQSGVNTRLLTIQSHVQNYIPISLTQQMSDLRKFISEITIRNDNQEVLPQRITHDVGIKPLNPDDFWRCTSGLPSLMKTPKIRLMPGPGLLAMPTTVDGCVRTPSLVINDLIYAYTSNLITRGCQDIGKSYQVLQIGIITVNSDLVPDLNPRISHTFNINDNRKSCSLALLNTDVYQLCSTPKVDERSDYASSGIEDIVLDIVNYDGSISTTRFKNNNISFDQPYAALYPSVGPGIYYKGKIIFLGYGGLEHPINENVICNTTGCPGKTQRDCNQASHSPWFSDRRMVNSIIVVDKGLNSIPKLKVWTISMRQNYWGSEGRLLLLGNKIYIYTRSTSWHSKLQLGIIDITDYSDIRIKWTWHNVLSRPGNNECPWGHSCPDGCITGVYTDAYPLNPTGSIVSSVILDSQKSRVNPVITYSTATERVNELAILNRTLSAGYTTTSCITHYNKGYCFHIVEINHKSLNTFQPMLFKTEIPKSCS
B1 gave a Neuraminidase activity with Fetuin (optical density values at 549nm) (optical density at 549nm) of 1.11.
